The values below come from publication PMC9741652, “CRL2^ZER1/ZYG11B recognizes small N-terminal residues for degradation” (Nature Communications, 2022).

B1: SFLHVGQDGLELPTS peptide (15-mer, position 1 Ser) (peptide)
peptide: SFLHVGQDGLELPTS
notes: numbers count on: the peptide; Spot on a cellulose membrane; also called Nt-Ser (SPOT array); source: synthetic peptide, synthesized on cellulose membrane (SPOT array)
B2: TFLHVGQDGLELPTS peptide (15-mer, position 1 Thr) (peptide)
peptide: TFLHVGQDGLELPTS
notes: numbers count on: the peptide; Spot on a cellulose membrane; also called Nt-Thr (SPOT array); source: synthetic peptide, synthesized on cellulose membrane (SPOT array)
B3: AFLHVGQDGLELPTS peptide (15-mer, position 1 Ala) (peptide)
peptide: AFLHVGQDGLELPTS
notes: numbers count on: the peptide; Spot on a cellulose membrane; also called Nt-Ala (SPOT array); source: synthetic peptide, synthesized on cellulose membrane (SPOT array)
B4: GFLHVGQDGLELPTS peptide (15-mer from the N-terminus of ZNF701) (peptide)
peptide: GFLHVGQDGLELPTS
notes: 15-mer derived from the N-terminus of ZNF701; Spot on a cellulose membrane; also called Nt-Gly (SPOT array); source: synthetic peptide, synthesized on cellulose membrane (SPOT array)

T2 sequence (Q9C0D3 490-744): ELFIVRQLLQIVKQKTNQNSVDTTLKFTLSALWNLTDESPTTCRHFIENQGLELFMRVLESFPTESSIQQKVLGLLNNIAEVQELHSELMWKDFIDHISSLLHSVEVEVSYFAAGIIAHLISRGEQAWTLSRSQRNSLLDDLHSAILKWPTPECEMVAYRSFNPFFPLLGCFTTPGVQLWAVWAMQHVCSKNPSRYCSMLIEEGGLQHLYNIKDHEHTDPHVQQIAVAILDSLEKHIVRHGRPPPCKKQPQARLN

The target of one experiment is T1, GST-fused ZER1 (residues 469–766) (human, UniProt Q7Z7L7 469-766).
T1 construct: ZER1, human, residues 469-766; Vector pACYC-GST is Addgene Plasmid #62329; also called GST-tagged ZER1_(469–766); source: purified; cloned into pACYC-GST
T1 sequence (Q7Z7L7 469-766): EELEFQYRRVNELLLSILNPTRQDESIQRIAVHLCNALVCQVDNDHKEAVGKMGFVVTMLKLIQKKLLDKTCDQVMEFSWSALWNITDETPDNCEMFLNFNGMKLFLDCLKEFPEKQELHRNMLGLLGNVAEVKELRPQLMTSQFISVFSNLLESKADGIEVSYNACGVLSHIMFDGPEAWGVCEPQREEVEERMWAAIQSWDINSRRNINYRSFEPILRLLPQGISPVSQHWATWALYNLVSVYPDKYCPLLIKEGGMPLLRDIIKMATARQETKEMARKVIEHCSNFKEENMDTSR
In words: peptide or protein array; peptide SPOT array on cellulose membrane; purified GST-tagged ZER1 (50 nM) or ZYG11B (230 nM) in 10% glycerol, 0.1 M KCl, 1 mM EDTA, 20 mM HEPES pH 7.5, 1 h at room temperature; detected with anti-GST by chemiluminescence. The conditions noted are these: both partners purified.
As for B1, the binding result is “binds”.

Regarding B2, the binding result is reported as “binds”.

For the molecule B3, the binding result is reported as “binds”.

A further experiment has as its target T2, GST-fused ZYG11B (residues 490–744) (UniProt Q9C0D3 490-744).
T2 construct: ZYG11B, residues 490-744; Vector pACYC-GST is Addgene Plasmid #62329; also called GST-tagged ZYG11B_(490–744); source: purified; cloned into pACYC-GST
Described as above. To be noted: both partners purified.
With B1, the binding result is given as “binds”.

For B3, the binding result was “binds”.

B4: the binding result is “binds”.
